Data taken from article PMC3664799 (Nucleic Acids Research, 2013).

T1: DnaEBs DNA polymerase (Bacillus subtilis DnaE) (Bacillus subtilis, UniProt O34623 1-1115)
T1 sequence (looked up): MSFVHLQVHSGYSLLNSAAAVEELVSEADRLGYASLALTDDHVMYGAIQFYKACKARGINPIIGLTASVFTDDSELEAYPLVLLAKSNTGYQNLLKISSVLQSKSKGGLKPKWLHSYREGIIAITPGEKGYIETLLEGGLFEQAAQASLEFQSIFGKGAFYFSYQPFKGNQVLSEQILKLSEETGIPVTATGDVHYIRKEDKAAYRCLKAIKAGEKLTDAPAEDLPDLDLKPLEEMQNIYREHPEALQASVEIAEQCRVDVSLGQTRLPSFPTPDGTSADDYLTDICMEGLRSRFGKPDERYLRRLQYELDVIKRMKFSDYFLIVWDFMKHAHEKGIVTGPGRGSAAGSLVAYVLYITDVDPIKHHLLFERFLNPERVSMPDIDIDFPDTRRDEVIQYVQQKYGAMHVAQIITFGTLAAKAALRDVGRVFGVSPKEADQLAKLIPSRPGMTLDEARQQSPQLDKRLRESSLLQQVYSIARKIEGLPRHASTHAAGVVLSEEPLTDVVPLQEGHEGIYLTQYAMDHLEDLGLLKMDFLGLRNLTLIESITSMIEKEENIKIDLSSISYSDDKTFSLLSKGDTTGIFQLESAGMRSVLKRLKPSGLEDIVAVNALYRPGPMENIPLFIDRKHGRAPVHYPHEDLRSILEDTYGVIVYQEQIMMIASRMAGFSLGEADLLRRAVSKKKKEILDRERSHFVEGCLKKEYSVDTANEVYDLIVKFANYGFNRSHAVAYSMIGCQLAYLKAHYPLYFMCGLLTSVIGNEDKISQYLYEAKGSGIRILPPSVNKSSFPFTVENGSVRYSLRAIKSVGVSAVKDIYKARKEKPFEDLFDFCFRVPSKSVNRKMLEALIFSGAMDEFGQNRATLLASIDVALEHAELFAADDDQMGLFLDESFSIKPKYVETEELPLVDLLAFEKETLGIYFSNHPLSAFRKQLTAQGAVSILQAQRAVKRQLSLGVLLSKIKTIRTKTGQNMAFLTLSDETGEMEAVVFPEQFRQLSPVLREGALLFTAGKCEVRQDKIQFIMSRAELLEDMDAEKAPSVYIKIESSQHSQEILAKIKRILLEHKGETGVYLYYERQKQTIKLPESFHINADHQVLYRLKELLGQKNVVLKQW

B1: DnaC6-DnaI6 complex (co-purified DnaC helicase and DnaI loader) (complex, Bacillus subtilis)
chain 1: MTDLLNDRLPPQNIEAEQAVLGAIFLQPSALTLASEVLIPDDFYRMSHQKIYNAMLVLGDRGEPVDLVTVTSELANTDLLEEVGGISYLTDIANSVPTAANIEYYAKIVEEKSILRRLIRTATTIAQDGYTREDEVEDLLSEAEKTIMEVAQRKNTSAFQNIKDVLVQTYDNIEQLHNRKGDITGIPTGFTELDRMTAGFQRNDLIIVAARPSVGKTAFALNIAQNVATKTDESVAIFSLEMGAEQLVMRMLCAEGNINAQNLRTGNLTEEDWGKLTMAMGSLSNSGIYIDDTPGIRVSEIRAKCRRLKQESGLGMILIDYLQLIQGSGRSKDNRQQEVSEISRELKSIARELQVPVIALSQLSRGVEQRQDKRPMMSDIRESGSIEQDADIVAFLYRDDYYDKETENKNIIEIIIAKQRNGPVGTVSLAFVKEYNKFVNLERRFDDAGVPPGA
chain 2: MEPIGRSLQGVTGRPDFQKRLEQMKEKVMKDQDVQAFLKENEEVIDQKMIEKSLNKLYEYIEQSKNCSYCSEDENCNNLLEGYHPKLVVNGRSIDIEYYECPVKRKLDQQKKQQSLMKSMYIQQDLLGATFQQVDISDPSRLAMFQHVTDFLKSYNETGKGKGLYLYGKFGVGKTFMLAAIANELAEKEYSSMIVYVPEFVRELKNSLQDQTLEEKLNMVKTTPVLMLDDIGAESMTSWVRDEVIGTVLQHRMSQQLPTFFSSNFSPDELKHHFTYSQRGEKEEVKAARLMERILYLAAPIRLDGENRRHP
B2: DnaG primase (Bacillus subtilis) (enzyme, UniProt P05096 1-603, looked up)
chain: MGNRIPDEIVDQVQKSADIVEVIGDYVQLKKQGRNYFGLCPFHGESTPSFSVSPDKQIFHCFGCGAGGNVFSFLRQMEGYSFAESVSHLADKYQIDFPDDITVHSGARPESSGEQKMAEAHELLKKFYHHLLINTKEGQEALDYLLSRGFTKELINEFQIGYALDSWDFITKFLVKRGFSEAQMEKAGLLIRREDGSGYFDRFRNRVMFPIHDHHGAVVAFSGRALGSQQPKYMNSPETPLFHKSKLLYNFYKARLHIRKQERAVLFEGFADVISAVSSDVKESIATMGTSLTDDHVKILRRNVEEIILCYDSDKAGYEATLKASELLQKKGCKVRVAMIPDGLDPDDYIKKFGGEKFKNDIIDASVTVMAFKMQYFRKGKNLSDEGDRLAYIKDVLKEISTLSGSLEQEVYVKQLASEFSLSQESLTEQLSVFSKQNKPADNSGETKTRRAHLTTKARQKRLRPAYENAERLLLAHMLRDRSVIKKVIDRVGFQFNIDEHRALAAYLYAFYEEGAELTPQHLMARVTDDHISQLLSDILMLQVNQELSEAELSDYVKKVLNQRNWSMIKEKEAERAEAERQKDFLRAASLAQEIVTLNRSLK

Tests used:
[1] = target: T1, DnaEBs DNA polymerase (Bacillus …); assay: SEC
[2] = target: B1; assay: SPR
[3] = target: T1, DnaEBs DNA polymerase (Bacillus …); assay: SPR

Row | binding result [1] | Ka [2] [M⁻¹] | Kd [2] [nM] | koff [2] [s⁻¹] | kon [2] [M⁻¹ s⁻¹] | Ka [3] [M⁻¹] | Kd [3] [nM] | koff [3] [s⁻¹] | kon [3] [M⁻¹ s⁻¹] | Binder
1 | binds |  |  |  |  |  |  |  |  | B1
2 |  | 3.77e+06 | 295 | 0.000287 | 1080 | 1.33e+08 | 752 | 0.00181 | 2400 | B2
